Results on 2 molecules are retold here after publication PMC6287947.

The target in experiment [1] is taxol-stabilized MTs. Put plainly: co-sedimentation; 6His-Prp31 (10 nM) or 6His-Sf3A2 (13 nM) incubated at RT for 30 min with 2 μM taxol-stabilized MTs (or 2 μM tubulin without Taxol), centrifuged at 100,000 g at RT for 40 min; supernatants and pellets by Western blotting.
The target in experiment [2] is taxol-stabilized MTs. Briefly: co-sedimentation; 6His-Prp31 (10 nM) or 6His-Sf3A2 (13 nM) with increasing amounts of taxol-stabilized MTs (0.25–2 μM of tubulin dimers in MT polymers), 25 mM NaCl, RT 30 min, 100,000 g 40 min; SDS-PAGE and Coomassie staining; three independent experiments.

As for “6His-Sf3A2 (from UniProt Q9VU15 1-264) (natural protein)”, the percent co-sedimented with MTs with taxol-stabilized MTs [1] and with taxol-stabilized MTs [2] was above 80% in each case.

B1: 6His-Prp31 (natural protein)
chain: MSLADELLADLEEDNDNELEEEDSEMASAEDESLLAEKLAKPAPNLMDVDVTVQSVRELCKLRDSERLKNTLQQIEHYASRQRTAAEMLGSVESDPEYCLIVDANAIAVDIDNEISIVHKFTKEKYQKRFPELDSLIVGEIEYLLAVKELGNDLDQVKNNEKLQAILTQATIMIVSVTASTTQGTMLTPAEKAKIDEACEMAIELNNFKSKIYEYVESRMTFIAPNLSMIVGASTAAKLLGIAGGLSKLSKMPACNVQVLGAQKKTLSGFSQTQMLPHTGYVYYSQIVQDTAPDLRRKAARLVAAKSVLAARVDACHESVHGEIGLRFKEDVEKKLDKLQEPPPVKFIKPLPKPIEGSKKKRGGKRVRKMKERYALTEFRKQANRMNFGDIEEDAYQGDLGYSRGTIGKTGTGRIRLPQVDEKTKVRISKTLHKNLQKQQVYGGNTTVKRQISGTASSVAFTPLQGLEIVNPQAAERSQTEANAKYFSNTSGFMSVGQRTT
B1: the percent co-sedimented with MTs with taxol-stabilized MTs [1] and in the experiment with taxol-stabilized MTs [2] was above 80% throughout.
